Residue numbers refer to the chain shown, from its start.

In assay [1] the target is T1, SARS-CoV-2 RBD-SD1 with murine IgG2a Fc part, produced in High Five cells (SARS-CoV-2, UniProt P0DTC2).
T1 construct: source: High Five insect cells, transient transfection, purified (Protein A)
Kind of assay: ELISA. The settings on record: both partners purified. A general note: In an ELISA, binding on a coated surface is turned into a signal by an enzyme label.

The target of assay [2] is T1, SARS-CoV-2 RBD-SD1 with murine IgG2a Fc …. Description: flow cytometry on cells. The settings on record: both partners purified. A general note: A flow cytometer gives signals particle by particle.

B1: STE72-4C10 scFv-Fc (scFv, V domains shown)
VH: EVQLQESGGGVVQPGRSLRLSCAASGFTFSSYAMHWVRQAPGKGLEWVAVISYDGSNKYYADSVKGRFTISRDNSKNTLYLQMNSLRAEDTAVYYCAREYSSSWYGLGAFDIWGQGTMVTVSS
VL: DIRLTQSPSSLSASVGDRVTITCRASQNIHYYLNWYQQKPGKAPSLLVYGASSLQSGVPSRFSGSGSGTEYTLTISSLQPEDFATYFCQQSFKSPATFGQGTKVDIK
notes: also called scFv-hFc; source: Expi293F, transient transfection, purified (Protein A)
For the molecule B1, the midpoint of the response in assay [1], the EC50, lay at 0.5 nM. Also, the concentration for half-maximal inhibition (IC50) (in general, the concentration that inhibits the measured activity by half) in assay [2] was found to be 3.5 nM.

B2: STE73-2C2 scFv-Fc (scFv, V domains shown)
VH: QVQLVESGGGLVQPGGSLRLSCAASGITVSSNYMSWVRQAPGKGLEWVSVIYSGGSTFYADSVKGRFTISRDNSKNTLYLQMNSLRAEDTGVYYCARGHDNLDYWGQGTLVTVSS
VL: LPVLTQPHSVSESPGKTVIISCTGSSDSIASNYVQWYQQRPGSAPTTVIYEDNKRPSGVPDRFSGSTDSSSNSASLTISGLKTEDEAEYYCQSYDSNNHWVFGGGTKLTVL
notes: as for B1
Consider B2, for which the EC50 (commonly the concentration giving half of the maximal effect) in assay [1] turned out to be 3.1 nM. In assay [2], this molecule registered an IC50 of 3 nM.

B3: STE72-8E1 scFv-Fc (scFv, V domains shown)
VH: QVQLQEWGPGLVQPSETLSLTCTVSGGSISSGGYYWSWIRQHPGKGLEWIGRIYPSGSTNYNPSLKSRVTMSVDTSENQFSLKLSSVTAADTAVYYCARGGPKRSGSPFDVWGQGTMVTVSS
VL: EVVMTQSPSTLSASVGDRVTITCRASQTFGPWLAWYQQKPGQAPKLLIYMASELESGVPSRFSGSGSGTEFTLSISSLQPDDFATYYCQQYNTFSPWTFGQGTKVDIK
notes: as for B1
As to B3, in assay [1], the midpoint of the response, the EC50, lay at 0.4 nM. In assay [2], this molecule gave an IC50 of 5.6 nM.

B4: STE72-4E12 IgG (antibody, V domains shown)
VH: QVQLVQSGAEVKKPGASVKVSCKASGYTFTSYYMHWVRQAPGQGLEWMGIINPSGGSTSYAQKFQGRVTMTRDTSTSTVYMELSSLRSEDTAVYYCARDLSGGLDYWGQGTLVTVSS
VL: ETTLTQSPATLSVSPGERVTLACRAGQTISSKLAWYRQKPGQAPSLLIYDASTRATGVPARFSGSGSGTEFTLTISSLQSEDFAVYYCQQYSDWPPTFGQGTKVEIK
notes: source: Expi293F, transfected, purified (Protein A); copies: 2 + 2
Take B4: in assay [1], the EC50 turned out to be 1.6 nM.

B5: STE72-2G4 scFv-Fc (scFv, V domains shown)
VH: QVQLVQSGAEVKKPGASVKVSCKASGYTFTSYGISWVRQAPGQGLEWMGWISAYNGNTNYAQKLQGRVTMTTDTSTSTAYMELRSLRSDDTAVYYCARFFYDSSGYSTDYWGQGTLVTVSS
VL: ETTLTQSPAFMSVTPGDRAILSCRASQSVDSHLAWYHQKPGQPPRLLIYGASTRATGIPARFSGSRSGTEFTLTISGLQSEDLGVYYCQQYASWPPGYNFGQGTKLEIK
notes: as for B1
B5 displayed an EC50 in assay [1] of 0.2 nM. The molecule further gave an IC50 in assay [2] of 3.7 nM.

B6: STE73-2B2 scFv-Fc (scFv, V domains shown)
VH: QVQLVQSGAEVKKPGASVKVSCKASGYTFTGYYMHWVRQAPGQGLEWMGWINPNSGGTNYAQKFQGRVTITRDTSASTAYMELSSLRSEDTAVYYCARVSGWYFGAFDIWGQGTMVTVSS
VL: LPVLTQPHSLSESPGKTVNISCTGSSGSIASNYVQWYQQRPGSAPTTVIYEDSHRPSGVPDRFSGSIDSSSNSASLSISGLKTEDEADYYCQSYDSSNNQWVFGGGTKLTVL
notes: as for B1
Take B6: a half-maximal effect in assay [1] (EC50) was put at 0.2 nM. Moreover, the IC50 in assay [2] came to 1.7 nM.

B7: STE73-2E9 scFv-Fc (scFv, V domains shown)
VH: QVQLVQSGAEVKKPGASVKVSCKASGYTFTSYGISWVRQAPGQGLEWMGWISAYNGNTNYAQKLQGRVTMTTDTSTSTAYMELRSLRSDDTAVYYCARGKFDYWGQGTLVTVSS
VL: QSVLTQPPSVSEAPSQRVTISCSGSSSNIGNNAVNWYQQLPGKAPKLLIYYDDVLPSGVSDRFSGSKSGTSASLAISGLQSGDEADYYCAAWDDSLSGVVFGGGTKLTVL
notes: as for B1
For B7, the IC50 in assay [2] was 3.4 nM.

B8: STE72-1B6 scFv-Fc (scFv, V domains shown)
VH: QVKLVQSGGGLVQPGGSLRLSCAASGFTFSSYAMSWVRQAPGKGLEWVSGISGSGGSTYYADSVKGRFTISRDNSKNTLYLQVNSLRAEDTAVYYCAKAPYGDFRGLWYFDYWGQGTLVTVSS
VL: DIVMTQSPFSVSASVGDRVTISCRASQDIRSWLAWYQQKPGKAPQLLIYDASSLQSGVPSRFSGSGSGTDFTLTISSLQPEDFATYYCQQADSVPLTFGGGTKVEIQ
notes: as for B1
Consider B8, for which, in assay [1], the concentration for a half-maximal effect (EC50) was found to be 0.5 nM. The molecule further gave an IC50 in assay [2] of 4.8 nM.

B9: STE72-1B6 IgG (antibody, V domains shown)
VH: B8 VH
VL: B8 VL
notes: as for B4
For B9, in assay [1], a half-maximal effect (EC50) was put at 1.1 nM.

B10: STE72-1G5 scFv-Fc (scFv, V domains shown)
VH: QVQLVQSGAEVKKPGASVKVSCKASGGTFSSYAISWVRQAPGQGLEWMGGIIPIFGTANYAQKFQGRVTITADESTSTAYMELSSLRSEDTAVYYCAVGGVQLWLTYWGQGTLVTVSS
VL: ETTLTQSPGALSLSPGERATLSCRVSQSLSSNSLAWYQQKPGQAPRLLIYDTSIRATGIPDRFSGSGSGTDFTLTISRLEPEDFAVYYCHKYGSWPRTFGQGTKVEV
notes: as for B1
On to B10, for which it took 2.8 nM to reach a half-maximal effect in assay [1] (EC50).

B11: STE70-1E12 scFv-Fc (scFv, V domains shown)
VH: QMQLVQSGAEVKKPGASVKVSCKASGYTFTGYYMHWVRQAPGQGLEWMGRINPNSGGTNYAQKFQGRVTMTRDTSTSTAYMELSRLRSDDTAVYYCVRDGYNFNNWFDPWGQGTLVTVSS
VL: NFMLTQPHSVSGSPGETITISCTGSGGSIASNYVQWYRQRPGSAPTIVIYEDTQRPSGVPDRFSGSIDSSSNSASLTISGLKTEDEADYYCQSSESTNHVMFGGGSKLTVL
notes: as for B1
In turn, B11 gave an EC50 in assay [1] of 0.3 nM. In addition, the IC50 in assay [2] came to 3.2 nM.

B12: STE70-1E12 IgG (antibody, V domains shown)
VH: B11 VH
VL: B11 VL
notes: as for B4
B12 registered an EC50 in assay [1] of 0.3 nM.

B13: STE73-6C1 scFv-Fc (scFv, V domains shown)
VH: QVQLVQSGGGVVQPGRSLRLSCAASGFTFSSYAMHWVRQAPGKGLEWVAVISYDGSNKYYADSVKGRFTISRDNSKNTLYLQMNSLRAEDTAVYYCARSYVGGMDVWGQGTTVTVSS
VL: QLVLTQSPSVSGAPGQSVTISCTGTDSNIGAGYNVHWYQQLPGAAPKLIISYTDNRPSGVPDRFSGSKSGTSASLAITGLQAEDEADYYCQSSDRTLVGSLFGTGTKVTVL
notes: as for B1
In assay [1], B13 yielded an EC50 of 0.6 nM. The midpoint of inhibition in assay [2], the IC50, lay at 4.1 nM.

B14: STE73-9G3 scFv-Fc (scFv, V domains shown)
VH: QVQLQESGGGLVQPGGSLRLSCAASGFTFSSYAMSWVRQAPGKGLEWVSAISGSGGSTYYADSVKGRFTISRDNSKNTLYLQMNSLRAEDTAVYYCARDLVLGSGSSNDWGRGTLVTVSS
VL: B13 VL with L2P, S7P
notes: as for B1
On to B14, for which the EC50 in assay [1] is 0.4 nM. This molecule also registered an IC50 in assay [2] of 3.4 nM.

B15: STE73-6C1 IgG (antibody, V domains shown)
VH: B13 VH
VL: B13 VL
notes: as for B4
Molecule B15 displayed an EC50 in assay [1] of 14.1 nM.

B16: STE73-9G3 IgG (antibody, V domains shown)
VH: B14 VH
VL: B13 VL with L2P, S7P
notes: as for B4
With B16, in assay [1], the EC50 stood at 0.4 nM.

B17: STE73-6C8 scFv-Fc (scFv, V domains shown)
VH: QVQLQQSGAEVKKPGSSVKVSCKASGGTFSSYAISWVRQAPGQGLEWMGRIIPILGIANYAQKFQGRVTITADKSTSTAYMELSSLRSEDTAVYYCARSIAALNWFDPWGQGTLVTVSS
VL: NFMLTQPHSVSESPGKTVTIPCTGSRGSIANNYVQWYRQRPGRAPTTVIFEDNQRPSGVPDRFSGSIDRSSNSASLTISGLETEDEADYYCQSYDGSNVIFGGGTKLTVL
notes: as for B1
The molecule B17 yielded a 50% effective concentration (EC50) in assay [1] of 1.1 nM. For the same molecule, the IC50 in assay [2] was determined as 5.4 nM.

B18: STE73-6C8 IgG (antibody, V domains shown)
VH: B17 VH
VL: B17 VL
notes: as for B4
In the case of B18, the EC50 in assay [1] came to 2.9 nM.

B19: STE73-2G8 scFv-Fc (scFv, V domains shown)
VH: QVQLVQSGGGLVKPGGSLRLSCAASGITVSSNYMSWVRQAPGKGLEWVSILYSGGTTFYTDSVKGRFTISRDNSKNTLHLQMNSLRAEDTAVYYCARWSGTYYDYWGQGTLVTVSS
VL: SSELTQDPAVSVALGQTVRITCQGDSLRSYYASWYQQKPGQAPVLVIYGKNNRPSGIPDRFSGSSSGNTASLTITGAQAEDEADYYCNSRDSTNDPVLFGAGTKLTVL
notes: as for B1
In the case of B19, the EC50 in assay [1] was found to be 0.2 nM. The same molecule had an IC50 in assay [2] of 2.8 nM.

B20: STE73-2G8 IgG (antibody, V domains shown)
VH: B19 VH
VL: B19 VL
notes: as for B4
In assay [1], B20 returned an EC50 of 0.8 nM.

The record behind these values is paper PMC7952403 (Nature Communications, 2021).
